Results published in the nanobody polyreactivity screen of Harvey et al. (2022).

test: yeast display, Sf9 membrane polyspecificity reagent, FACS + sequencing; frameworks hold sequencing errors
Outline: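 After 36–48 hours of galactose induction, yeast (Saccharomyces cerevisiae BJ5465) displaying a synthetic nanobody library were stained at 4 °C for 1 hour with 10% biotinylated, detergent-solubilized Sf9 membrane reagent. Streptavidin microbeads enriched the stained cells before FACS sorting into low and high (top ~1%) gates on anti-HA and streptavidin fluorescence. Each clone's polyreactivity label reflects its gate of origin.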

Row | Sequence | polyreactivity (PSR sort gate)
1 | QVQHVESGGGLVQAGGSLRLSCAPSGRIFRYNAMGWYRQAPGKERELVAVISTRGGSTFYADSVKGRFTISRDNAKNTVYFQMNSLKPEDTAVYSCAAYRRHPFGGGYWGQGTQVTVSS | high polyreactivity
2 | QVQHVESGGGLVQAGGSLRLSCPASGIIIYQYALGSYRQAPGKERELVAAISSGVNTYYADSVKGRFTISRDNAKNTVYLQMNSLKPEDTAVYYCAARLTFGYLRSKFYYWGQGTQVTVSS | high polyreactivity
3 | QVQHVESGGGLVQAGGSLRLSSAASGLTFYHYTMGWYRQAPGKERELVAAITKNGGSTYYADSVKGRFTISRDNAKNTVYLQMNSLKPEDTAVYYCNVGPRRVDRSRAASSDYDYWGQGTQVTVSS | high polyreactivity
4 | QVQHVESGGGLVQAGGSLRLSSAAYGFIFGYYTMGWYRQAPGKERELVAAITSGDSTNYADSVKGRFTISRDNAKNTVYLQMNSLKPEDTAVYYCNARGLFTWMDYWGQGTQVTVSS | low polyreactivity
5 | QVQHVESGGGLVQAGGSLSLSCAASARTFRRNVMGLYRQAPGKERELVAAISYGANTNYADSVKGRFTISRDNAKNTVYLQMNSLKPEDTAVYYCAAGEGWRSRTFDYWGQGTQVTVSS | low polyreactivity
6 | QVQHVESGGGLVQAGGSNRLSCAASAFIFRSNAMGWYRQAAGKEREFVPAISSRGGSTTYADSVKGRFTISRDNAKITVYLQMKSLKPEDTAVYYCARDCYYYPQYRKRYYYWGQGTQVSVSS | high polyreactivity
7 | QVQHVESGGGLVQAGRSLRLICAASGSIFDGNAMGWYRQAPGKERELVAAINWPGTRTYYADSVKGRFTISRDNAKNTVYLQMNSLKPEETAVYNCNKKWYPYLEHDYWGLGTQVTVSS | high polyreactivity
8 | QVQHVESGGGLVQSGGSLRLSCAASGSIFGKYSMGWYRQAPGKERELVAAISDSGSITYYADSVKGRLTISRDNAMYTFYLQMNSLKPEDTAVYYCAAEVNYYQRFKYEYWGQGTQVTVSS | high polyreactivity
9 | QVQHVESGGGVVQGGGSLRLSCAASLSIFYIYAMGWYRQAPGTERELVAAITRSGGSTNYADSVTGPFTFSRDNATNTVYLQMTSLQPEDTAVYYCAAAVGRPYTPTYDYWGQGTKVTVSS | low polyreactivity
10 | QVQHVESGGVLVQARGSLRLTCAASGSTFIRNAMGWYRQAPGKERELVAAISASGGRSYYADSVKGRFTFSRDNAKTSVYCQLNSLKSEDTAVYYFAARNARYVHTMVFWGQGTQVTVSS | high polyreactivity
11 | QVQHVESGRGLVPAGGSLRLSCAASGSTFNLNAMGWYRQAPGKERELVAAISWRGDSTSYADSVKGRFTISRDNAKNTVYLQMNSLKPEDTAVYFCATAHDSAFYRYWYVPSEYNYWGQGTQVTVSS | low polyreactivity
12 | QVQHVESGRGLVQAGGSLRLSCAASGSIFRWYTMGWYRQAPGKERELVAAITSGGTTKYADSVKGRFTISRDNAKNTVYLQMNSLKPEDTAVYYCARRHRYRYDWGQGTQVTVSS | high polyreactivity
13 | QVQHVESGRGLVQAGGSLRLSCAASGSIFTSNAMGWYRQAPGIERELVAAISIGGGTYYADSVKGRFTISRDNAKNTVYLQMNSLKPEDTAVYYCAARVGGRRVRFNYWGQGTQVTVSS | high polyreactivity
14 | QVQHVESGRGLVQAGGSLRLSCAASGSTFDYNALGWSRQAPGKERELVARISSSGGITDYADSVKGRFTISRDNAKNTVYLHMNSLKPDDTAVNYCARVGKSGAVTAETRRWYYYWGQGTQVTVSS | low polyreactivity
15 | QVQHVESGVGLVQAGGSLRLSCAASGRIFRWNAMGWYRQAPGKERELVAAISWNGGRTYYADSVKGRFTISRDNAKNTVYLQMNSLKPEDTAVYYCAAPHCVPDLHSGDYWGLGTQVTVSS | low polyreactivity
16 | QVQHVESGVGLVQAGGSLRLSCAASGRTFHSSTMGWYRLAAGKERELVAAISKSGGSTYYADSVKGRFTLSRDNAKNTVYLQMNSLKPEDTAVYYCAADPGSRVHPGVYYWGQGTQLTVSS | high polyreactivity

Row | Sequence | polyreactivity (PSR sort gate)
17 | QVQHVESGVGLVQPVGSLRLSCAASGSTIVSNAMGWERQAPGKERELVAAISTSGGTTDYPDSVKGRFTISRHNAKNTVYLQMNCLKPEDTAVYYCAARHYYVKHSYDYWGQGTQVTVSS | low polyreactivity
18 | QVQHVESLGGLVQAGGSLRLSCAASGIIFGYYAMGWYRQAPGKERELVAAISRRGGSTYYADSVKGRFTISRDNAKNTVYLQMNSLKPEDTAVYYCAAVELRLSTPDMESWGQGTQVTVSS | high polyreactivity
19 | QVQHVESRGGLVQAGGSLRLSCAASGFTFYLNAKGWYRQAPGKVRELVAAISYSDGSTYYADSVKGRFTISRDNAKNTVYLQMNSLIPEDTAVYYCAADTTDPGGAYQLMEYWGQGTQVTVSS | high polyreactivity
20 | QVQHVESRGGLVQAGGSLRLSCAASGIIFRYAMGWYRQAPGKERELVAAIRKSDGSTYYADSVKGRFTISRDNAKNTFYLQMNSLKPEDTAVYYCATDIGYGNRKGFYYWGQGSQVTVSS | high polyreactivity
21 | QVQHVESVGGLVQAGGSLRLICADSGFTFWPYAMGWYRPAPGTERELVAAITSSGSTNYADSVKGRFTISRDNAKNTVYLQMNSMKQEDTAVYYCAADHRPWRFQSSVQLYYYWGQGTQVTVSS | low polyreactivity
22 | QVQHVESVGGLVQAGGSLRLSCAASGSIFGRYAMGWYRHAPGKERELVAAISWSGGSTYYADSVKGRFTISRDNAKNTVYLQMNSLKPEDTAVYYCAATTYSGFDYWGQGTQVTVSS | high polyreactivity
23 | QVQHVESVGGLVQAGGSLRLSCAASGSTFGYYAMGWYRQAPGKERELVATISATGGSTYYADSVKGRFTISRDNAKNTVYLQMNSLKPEDTAVYYCNAEYDRGNEYDYWGQGTQVTVSS | low polyreactivity
24 | QVQHVESVGGLVQAGGSLRLSCAASGYIFDYYDIGWYRQAPGKERELVAAINWSGGNTYYADSVKGRFTISRDNAKNTVYLQMKSLKPEDTAVYYCNADPTWSLEYGYWGQGTQVTVSS | low polyreactivity
25 | QVQHVESVGGLVQAGGSLRLSCASSASIFRPNAMGWYRQAPGKDRELVAAITWSGDSTYYADSVKGRFTISRDNAKNTVYLQMNSLKPEDTAVYYCAADFTYQGSSPNYYWGQGTQVTVSS | low polyreactivity
26 | QVQHVESVGGLVQAGGSLRVSCAASGTIFTFYTMGRYRPAPGKERELVAAISQTGGRTYYGDSVKGRFTISRDNAKNTVYLQMNSLKPEDTAVYYCAASVGRYAGNYWGQGTQVTVSS | high polyreactivity
27 | QVQHVETGGGLVQAGGSLRLSCAASGSTFVLYAKGWYRQAPGKERELVAAITWSGDDTYYADSVKGRFTISRDNAKNTVYLQMISLKPEDTAVYYCAAAYAYWGQGTQVTVSS | low polyreactivity
28 | QVQHVETRGGLVQAGGSLRLSCAASGFIFIRYAMGWDRQAPGKERELVAGITSSGGSTYYADSVKGRFTISRDNAKNSVYLQMNSLKPEDTEVYFCNADSWLYRFYGYDYWGQGTQVTVSS | low polyreactivity
29 | QVQIEESGGCLVQAGGSLRLSCAASGNTFFKYNMGWSRQAPRKERELVAAITWSGGSTSYADSVKGRFTISRDNAKNTVYLQMNSLKPEDTAVYYCAAAWSHSRWDTHDYWGQGTQVTVSS | low polyreactivity
30 | QVQIEESGGCLVQAGGSLRLTCAASGRIISWNAMGWSRQAPGKERELVAGITWNGGRTYYADSVKGRFTISRDNVKNTVYLQMNSLKPEDTAVFSCNAERFDLTYNYWGQGTQVTVSS | high polyreactivity
31 | QVQIEESGGGLVQEGGSLRISCAASGRIFVYYAMGWNRQAPGKDWELVAAISSGGNTYADSVKGRFTISRDNAKITVYLQMYSLKPDDTAVYYCNASPVSSHVHPKRGYEYWGQGTQVNVSS | low polyreactivity
32 | QVQIEESGGVLVQAGGSLRLSCAASGSIFQPYALGWYRQAPGKERELVAAISSSGGSTTYADSVKGRFTISRDIAKNTVYLQMNSLKPEDTAVYYCAADSADDMGYWGQGTQVTVSS | low polyreactivity
